Data reported in US20210380703A1.
Where a chain is given by its changes, count along the chain named.

B1: 367_C01 (antibody, V domains shown)
VH: EVQLLESGGGLVQPGGSLRLSCAASGFTFDDYSMNWVRQAPGKGLEWVSGINYNGGYKSYADSVKGRFTISRDNSKNTLYLQMNSLRAEDTAVYYCARSANWHDTHLDYWGQGTLVTVSS
VL: DIQMTQSPSSLSASVGDRVTITCRASQSILTYLNWYQQKPGKAPKLVIYATTSLHSGVPSRFSGSGSGTDFTLTISSLQPEDFATYYCQQSYDTPLTFGGGTKVEIK
B2: 367_H06 (antibody, V domains shown)
VH: B1 VH with D30S, D31S, S33G, G50N, K58T, S59G
VL: B1 VL with L30I, V47L, T51A, L54R, H55A
B3: 367_G10 (antibody, V domains shown)
VH: B1 VH with S33G, K58T, H106A
VL: B1 VL with L30I, T31S, L33V, V47L, T51A, L54R, H55A, T94S
B4: 368_D04 (antibody, V domains shown)
VH: B1 VH with D30S, D31S, S33G, H106A
VL: B1 VL with L30S, L33V, T51V, L54R, T94S
B5: 367_H11 (antibody, V domains shown)
VH: B1 VH with D30S, D31S, S33G, S49A, S59G, H106A
VL: B1 VL with L30I, T31S, L33V, T51A, L54R, H55A, D93N, T94S
B6: 369_C02 (antibody, V domains shown)
VH: B1 VH with D31S, G50N, H106A
VL: B1 VL with T51A, L54R, H55A, D93E, T94L
B7: 368_E04 (antibody, V domains shown)
VH: B1 VH with D30S, D31S, S49A, G50N, G55S, K58T, S59G, H106A
VL: B1 VL with T31S, L33V, V47L, T51A, L54R, T94N
B8: 368_F03 (antibody, V domains shown)
VH: B1 VH with D31S, S49A, G55S, K58T, S59G, R98K, H106A
VL: B1 VL with L30I, T31S, T51A, L54R, T94S
B9: 368_E01 (antibody, V domains shown)
VH: B1 VH with D30S, D31S, S49A, G50S, G55S, K58T, S59G
VL: B1 VL with T31S, V47L, T51V, L54R, D93S, T94L
B10: 369_F02 (antibody, V domains shown)
VH: B1 VH with D30S, D31S, S33G, S49A, G50S, G55S, H106A
VL: B1 VL with L30V, T31S, T51A, L54R, H55A
B11: 368_E07 (antibody, V domains shown)
VH: B1 VH with D30S, D31S, S33G, S49A, K58T, R98K, H106A
VL: B1 VL with T31S, V47L, T51V, L54R, H55A, D93E, T94N
B12: 368_A01 (antibody, V domains shown)
VH: B1 VH with D30S, D31S, S33G, G50N, K58T, H106A
VL: B1 VL with L30I, T31S, V47L, T51A, L54R, T94N
B13: 367_E11 (antibody, V domains shown)
VH: B1 VH with D31S, S33G, G50S, G55S, S59G
VL: B1 VL with L30V, T31S, L33V, T51A, L54R
B14: 367_F03 (antibody, V domains shown)
VH: B1 VH with D30S, D31S, S49A, G55S, H106A
VL: B1 VL with T31S, L33V, T51A, H55A, Y92D
B15: 368_A05 (antibody, V domains shown)
VH: B1 VH with D30S, D31S, S49A, G55S, K58T, S59G, H106A
VL: B1 VL with L30V, T31S, T51A, L54R, H55A, T94S
B16: 367_D10 (antibody, V domains shown)
VH: B1 VH with D31S, S33G, G50N, K58T, H106A
VL: B1 VL with L30I, T31S, T51A, L54R, H55A
B17: 369_F01 (antibody, V domains shown)
VH: B1 VH with D30S, D31S, S33G, H106A
VL: B1 VL with L33V, V47L, T51A, L54R, H55A, D93E, T94L
B18: 369_E12 (antibody, V domains shown)
VH: B1 VH with D30S, D31S, S33G, N35H, S49A, G50S, G55S, K58T, H106A
VL: B1 VL with L30I, T31S, V47L, T51A, L54R, H55A, D93E, T94S
B19: 368_D01 (antibody, V domains shown)
VH: B1 VH with D30S, D31S, S33G, N35H, S49A, G50N, K58T, H106A
VL: B1 VL with T31S, T51A, L54R, H55A, Y92D, D93S
B20: 368_A07 (antibody, V domains shown)
VH: B1 VH with D30S, D31S, S49A, G55S, K58T
VL: B1 VL with L54R, H55A, Y92N, D93E, T94L
B21: 369_A02 (antibody, V domains shown)
VH: B1 VH with D30S, D31S, S49A, G55S, K58T, S59G
VL: B1 VL with T31S, L33V, V47L, T51A, L54R, H55A, T94L
B22: 367_C05 (antibody, V domains shown)
VH: B1 VH with S33G, G50S, K58T, S59G
VL: B1 VL with T31S, L33V, T51A, L54R, T94L
B23: 369_D12 (antibody, V domains shown)
VH: B1 VH with D31S, S49A, G55S, K58T, H106A
VL: B1 VL with T31S, V47L, T51A, H55A
B24: 368_E06 (antibody, V domains shown)
VH: B1 VH with D30S, S33G, N35H, K58T, S59G, H106A
VL: B1 VL with T31S, A50G, T51A, L54R, H55A, T94S
B25: 369_B01 (antibody, V domains shown)
VH: B1 VH with D30S, D31S, K58T, H106A
VL: B1 VL with T31S, V47L, T51V, L54R, H55A, D93E, T94N
B26: 369_D02 (antibody, V domains shown)
VH: B1 VH with D30S, G50N, G55S, K58T, S59G, H106A
VL: B1 VL with T31S, T51V, L54R, H55A
B27: 367_E09 (antibody, V domains shown)
VH: B1 VH with D30S, S33G, S49A, G50S, G55S, S59G, H106A
VL: B1 VL with T31S, L54R, H55A, D93E
B28: 369_C04 (antibody, V domains shown)
VH: B1 VH with D30S, D31S, G50N, K58T, S59G, H106A
VL: B1 VL with L33V, V47L, A50T, D93N, T94N
B29: 368_G12 (antibody, V domains shown)
VH: B1 VH with D30S, D31S, S33G, S49A, G50S, G55S, K58T, S59G, H106A
VL: B1 VL with L30S, T31S, L33V, T51V, L54R, H55A, D93E
B30: 368_G01 (antibody, V domains shown)
VH: B1 VH with D30S, S33G, N35H, S49A, G50S, G55S, K58T, H106A
VL: B1 VL with T51A, L54R, H55A, D93N, T94L
B31: 368_D11 (antibody, V domains shown)
VH: B1 VH with S33G, G50N, H106A
VL: B1 VL with T51A, L54R, H55A, T94L
B32: 367_G06 (antibody, V domains shown)
VH: B1 VH with D30S, D31S, S33G, G55S
VL: B1 VL with L33V, V47L
B33: 368_C05 (antibody, V domains shown)
VH: B1 VH with D31S, S33G, G55S, K58T, H106A
VL: B1 VL with T31S, T51A, L54R, H55A, Y92D, D93S, T94N
B34: 367_G05 (antibody, V domains shown)
VH: B1 VH with D30S, S33G, S49A, G50N, K58T, H106A
VL: B1 VL with L30V, T31S, T51A, H55A
B35: 369_C03 (antibody, V domains shown)
VH: B1 VH with D30S, D31S, S33G, G50N, H106A
VL: B1 VL with T51A, L54R, H55A, T94S
B36: 368_D05 (antibody, V domains shown)
VH: B1 VH with D30S, D31S, K58T, H106A
VL: B1 VL with T51A, L54R, H55A, Y92D, T94S
B37: 368_H04 (antibody, V domains shown)
VH: B1 VH with D30S, D31S, S49A, G55S, S59G, R98K
VL: B1 VL with L30V, T31S, L33V, V47L, T51A, L54R, H55A, T94S
B38: 369_F03 (antibody, V domains shown)
VH: B1 VH with D30S, S33G, G55S, K58T, H106A
VL: B1 VL with L30V, T31S, L33V, V47L, T51A, H55A, T94S
B39: 367_F07 (antibody, V domains shown)
VH: B1 VH with D31S, S33G, N35H, S49A, G50N, K58T, S59G, H106A
VL: B1 VL with L30I, T31S, L33V, V47L, T51A, L54R, H55A, D93E
B40: 368_A09 (antibody, V domains shown)
VH: B1 VH with D31S, K58T
VL: B1 VL with T31S, L33V, V47L, T51V, L54R, H55A, T94S
B41: 369_E02 (antibody, V domains shown)
VH: B1 VH with D31S, S33G, G50N, K58T, S59G, H106A
VL: B1 VL with L30V, T31S, L33V, V47L, L54R, T94N
B42: 367_E04 (antibody, V domains shown)
VH: B1 VH with D30S, G50S, S59G
VL: B1 VL with T31S, V47L, T51A, L54R, H55A, D93E, T94S
B43: 367_E01 (antibody, V domains shown)
VH: B1 VH with D30S, D31S, S33G, S49A, H106A
VL: B1 VL with T31S, L33V, V47L, L54R, H55A, T94L
B44: 368_B01 (antibody, V domains shown)
VH: B1 VH with D30S, D31S, S33G, G55S, H106A
VL: B1 VL with L30S, T31S, V47L, T51A, L54R, H55A, D93E
B45: 369_E11 (antibody, V domains shown)
VH: B1 VH with D30S, D31S, S33G, G50N, K58T, H106A
VL: B1 VL with L30I, T31S, V47L, T51A, H55A
B46: 369_D04 (antibody, V domains shown)
VH: B1 VH with D31S, S33G, K58T, H106A
VL: B1 VL with T31S, L33V, T51A, L54R, H55A, D93N, T94L
B47: 368_F11 (antibody, V domains shown)
VH: B1 VH with D30S, S33G, K58T
VL: B1 VL with L30V, T31S, L33V, T51A, L54R, H55A, D93N, T94N
B48: 374_A09 (antibody, V domains shown)
VH: B1 VH with D30S, D31S, G50S, S59G, S99G
VL: B1 VL with L33V, V47L, T51A, H55A, T94S

Molecular target: Human Fc (human)
Experiment: ELISA, negative control

Binder	optical density [OD]
B1	0.348
B2	0.313
B3	0.286
B4	0.338
B5	0.323
B6	0.369
B7	0.32
B8	0.323
B9	0.392
B10	0.478
B11	0.251
B12	0.396
B13	0.244
B14	0.301
B15	0.285
B16	0.251
B17	0.554
B18	0.452
B19	0.319
B20	0.261
B21	0.383
B22	0.255
B23	0.425
B24	0.325

Binder	optical density [OD]
B25	0.487
B26	0.407
B27	0.249
B28	0.248
B29	0.341
B30	0.431
B31	0.297
B32	0.28
B33	0.246
B34	0.283
B35	0.323
B36	0.282
B37	0.319
B38	0.389
B39	0.242
B40	0.277
B41	0.365
B42	0.284
B43	0.351
B44	0.365
B45	0.343
B46	0.435
B47	0.338

Molecular target: human Fc (human)
Experiment: ELISA, negative control

Binder	optical density [OD]
B48	0.231
